According to the supplement of paper PMC7125110:
± gives the standard error. For part of these data: Fewer inactive variants are shown than the library holds.

B1: glmS ribozyme (parent)
chain: AUAAAAGCGCCAGAACUACAGAAAUGUAGUUGACGAGGAGGAGGUUUAUCGAAUUUUCGGCGGAUGCCUCCAAA

Legend:
Details in all cases: with glucosamine-6-phosphate
glucosamine-6-phosphate [1] = variants of: B1; assay: kcat; higher = faster cleavage; RNA array
How it was run: (§1)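 On sequenced MiSeq chips, barcoded ribozyme variants were made in situ by E. coli RNA polymerase and followed at 37 °C through a hybridised Cy3 probe. Glucosamine-6-phosphate was flowed in at 40 μM to 10 mM in HEPES/KCl/Mg(OAc)2 buffer. Exponential fits to normalised per-tile medians gave kobs, and weighted Michaelis–Menten fits gave kcat and KM.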

glucosamine-6-phosphate [2] = variants of: B1; assay: KM; higher = weaker cofactor use; RNA array
How it was run: as §1

glucosamine-6-phosphate [3] = variants of: B1; assay: self-cleavage kobs at 40 uM GlcN6P; higher = faster cleavage; RNA array
How it was run: as §1

glucosamine-6-phosphate [4] = variants of: B1; assay: self-cleavage kobs at 160 uM GlcN6P; higher = faster cleavage; RNA array
How it was run: as §1

glucosamine-6-phosphate [5] = variants of: B1; assay: self-cleavage kobs at 640 uM GlcN6P; higher = faster cleavage; RNA array
How it was run: as §1

glucosamine-6-phosphate [6] = variants of: B1; assay: self-cleavage kobs at 2500 uM GlcN6P; higher = faster cleavage; RNA array
How it was run: as §1

glucosamine-6-phosphate [7] = variants of: B1; assay: self-cleavage kobs at 10000 uM GlcN6P; higher = faster cleavage; RNA array
How it was run: as §1

| Variant | kcat (glucosamine-6-phosphate [1]) [s⁻¹] | KM (glucosamine-6-phosphate [2]) [µM] | self-cleavage kobs at 40 uM GlcN6P (glucosamine-6-phosphate [3]) [s⁻¹] | self-cleavage kobs at 160 uM GlcN6P (glucosamine-6-phosphate [4]) [s⁻¹] | self-cleavage kobs at 640 uM GlcN6P (glucosamine-6-phosphate [5]) [s⁻¹] | self-cleavage kobs at 2500 uM GlcN6P (glucosamine-6-phosphate [6]) [s⁻¹] | self-cleavage kobs at 10000 uM GlcN6P (glucosamine-6-phosphate [7]) [s⁻¹] |
| --- | --- | --- | --- | --- | --- | --- | --- |
| A39C U45A | 0.0045 ± 0.001 | 1430 ± 550 | 0.000226 ± 5.6e-05 | 0.000456 ± 9.8e-05 | 0.00118 ± 0.0002 | 0.00392 ± 0.001 | 0.00397 ± 0.00058 |
| A39U U47C | 0.00869 ± 0.002 | 1870 ± 580 | 0.000213 ± 4.3e-05 | 0.000748 ± 0.0002 | 0.00198 ± 0.00032 | 0.00471 ± 0.00098 | 0.00934 ± 0.0026 |
| A39C G51A | < 1e-05 | – | – | – | – | < 1e-05 | < 1e-05 |
| G38U | < 1e-05 | – | – | – | – | – | – |
| G38U U47G | < 1e-05 | – | < 1e-05 | – | – | – | – |
| G38C C67U C70G | 1.59e-05 ± 1.8e-06 | – | – | – | – | – | – |
| A39G U45A | 0.0357 ± 0.011 | 581 ± 220 | 0.00238 ± 0.00029 | 0.00768 ± 0.0018 | 0.0157 ± 0.0034 | 0.061 ± 0.03 | 0.0497 ± 0.018 |
| G40A U55G | 0.00116 ± 0.00032 | 369 ± 170 | 0.000131 ± 1.8e-05 | 0.000246 ± 5.5e-05 | 0.000944 ± 0.00014 | – | 0.00106 ± 0.00018 |
| G37U C68U | < 1e-05 | – | – | – | – | – | – |
| A39C A53G | 0.00638 ± 0.001 | 1890 ± 400 | 0.000151 ± 1.5e-05 | 0.000404 ± 6.3e-05 | 0.00157 ± 0.00027 | 0.00372 ± 0.00061 | 0.00541 ± 0.0007 |
| A39G A42U | 0.000818 ± 0.00016 | 1510 ± 540 | 4.94e-05 ± 1.9e-05 | 7.49e-05 ± 2.2e-05 | 0.00023 ± 5.4e-05 | 0.00045 ± 0.00014 | 0.000751 ± 0.00014 |
| G38C A52G | < 1e-05 | 30.9 ± 14 | – | < 1e-05 | – | < 1e-05 | < 1e-05 |
| A39G C58G C71A | 2.19e-05 ± 5.6e-06 | – | – | – | – | – | – |
| G40A U57A | 3.08e-05 ± 6.4e-06 | – | < 1e-05 | < 1e-05 | – | 3.99e-05 ± 1.3e-05 | 2.63e-05 ± 9.5e-06 |
| A39U C50G C58U | 1.28e-05 ± 4e-06 | – | – | – | – | – | – |
| A39U G40A C67A | 0.000278 ± 2.3e-05 | 760 ± 190 | – | – | 0.000124 ± 3.1e-05 | 0.000245 ± 6.5e-05 | 0.000247 ± 5e-05 |
| G38U G62A | < 1e-05 | – | – | < 1e-05 | – | – | – |
| G40C A53C | 0.000789 ± 2e-05 | 2240 ± 110 | – | 5.46e-05 ± 1.9e-05 | 0.000176 ± 2.5e-05 | 0.0004 ± 6.6e-05 | 0.000652 ± 7.2e-05 |
| A39U G59A | 2.27e-05 ± 2.6e-06 | – | – | – | – | – | – |

| Variant | kcat (glucosamine-6-phosphate [1]) [s⁻¹] | KM (glucosamine-6-phosphate [2]) [µM] | self-cleavage kobs at 40 uM GlcN6P (glucosamine-6-phosphate [3]) [s⁻¹] | self-cleavage kobs at 160 uM GlcN6P (glucosamine-6-phosphate [4]) [s⁻¹] | self-cleavage kobs at 640 uM GlcN6P (glucosamine-6-phosphate [5]) [s⁻¹] | self-cleavage kobs at 2500 uM GlcN6P (glucosamine-6-phosphate [6]) [s⁻¹] | self-cleavage kobs at 10000 uM GlcN6P (glucosamine-6-phosphate [7]) [s⁻¹] |
| --- | --- | --- | --- | --- | --- | --- | --- |
| A39U U49G | 0.00055 ± 0.00012 | – | – | – | 0.000168 ± 5.1e-05 | 0.000231 ± 6.6e-05 | 0.000461 ± 7.3e-05 |
| A39G G66A | 0.0379 ± 0.019 | – | 0.000706 ± 0.00011 | 0.00437 ± 0.0011 | 0.00601 ± 0.001 | 0.0223 ± 0.0067 | 0.0342 ± 0.0078 |
| G37C U69A | 1.84e-05 ± 4.8e-06 | – | – | – | – | – | – |
| A39C C67G | 0.000391 ± 0.00014 | – | 2.13e-05 ± 7.7e-06 | 3.74e-05 ± 7.5e-06 | 8.41e-05 ± 7.6e-06 | 0.000216 ± 1.7e-05 | – |
| G37C A39U | 1.36e-05 ± 1e-06 | 1230 ± 450 | – | – | – | – | – |
| G37C A42G | 7.11e-05 ± 9.9e-06 | – | – | – | – | 4.76e-05 ± 1.3e-05 | 5.87e-05 ± 1e-05 |
| A39U U57G | 2.55e-05 ± 5.3e-06 | – | – | – | – | 3.12e-05 ± 1.3e-05 | 2.2e-05 ± 9.3e-06 |
| G37A C68U | 6.89e-05 ± 7.5e-06 | 2690 ± 820 | – | – | 1.94e-05 ± 7.7e-06 | 3.08e-05 ± 5.5e-06 | 5.51e-05 ± 6e-06 |
| A39C C70U | 0.000652 ± 0.00018 | 1210 ± 530 | 4.36e-05 ± 6.9e-06 | 7.31e-05 ± 9.7e-06 | 0.00019 ± 2.5e-05 | 0.000461 ± 8.2e-05 | 0.000616 ± 7.3e-05 |
| G40A U49G | 0.000121 ± 1.7e-06 | 1210 ± 55 | – | – | 4.19e-05 ± 1e-05 | – | 0.000108 ± 1.3e-05 |
| G38C C71U | < 1e-05 | – | < 1e-05 | – | < 1e-05 | – | – |
| G40A G41C | 0.000139 ± 2e-05 | – | – | – | 4.87e-05 ± 1.8e-05 | 0.000179 ± 4.9e-05 | 0.000123 ± 1.4e-05 |
| G37A U47A | 0.00374 ± 0.0017 | – | 4.6e-05 ± 1.8e-05 | 7.83e-05 ± 1.8e-05 | 0.000278 ± 4.8e-05 | 0.000752 ± 0.00014 | 0.00229 ± 0.00044 |
| G37C U54A U69G | 3.07e-05 ± 5e-06 | – | – | – | – | – | – |
| G40C C58A | 1.41e-05 ± 2.3e-06 | – | – | < 1e-05 | – | – | – |
| A39U G51A | < 1e-05 | – | < 1e-05 | < 1e-05 | – | – | < 1e-05 |
| G37A A53U C71U | 0.00135 ± 0.00053 | – | 7.9e-05 ± 3.8e-05 | – | 0.000464 ± 8.3e-05 | 0.000695 ± 0.00015 | 0.00165 ± 0.00033 |
| A39U G43U | 0.000561 ± 0.00011 | 1770 ± 600 | 1.76e-05 ± 8.1e-06 | 5.96e-05 ± 8.5e-06 | 0.000127 ± 1.3e-05 | 0.000418 ± 4.9e-05 | 0.00046 ± 4.6e-05 |
